According to patent publication US6958236B2, “Control of gene expression in plants” (priority 2000, dated 2005):

Test system: pCGS206 (luciferase reporter with response elements for the GAL4 DNA binding domain)
Assay: Maize BMS cells bombarded with GAL4 luciferase reporter and receptor vector, GUS-normalized luciferase
Type: cell-based
Conditions: for Fold Induction with Teb Relative to Receptor with EtOH / Fold Induction with Teb Relative to Reporter with EtOH: 20 μM Teb; for Normalized Average (EtOH): unliganded background; for Experiment #1 Luciferase / Experiment #2 Luciferase / Experiment #1 Fold Induction / Experiment #2 Fold Induction: Example 26; for Experiment #1 Fold Induction / Experiment #2 Fold Induction: + 10 μM Teb vs without
Method: (§1) Maize BMS (Black Mexican Sweet) cultured cells are transfected with pCGS206 and pCGS208 by high velocity microprojectile bombardment. In addition, an expression plasmid containing the maize ubiquitin promoter driving the expression of β-glucuronidase (GUS) is added to the transfection to serve as an internal control to normalize against variations among the samples.
(§2) Transfections are treated and cell lysates are made essentially as described in U.S. Pat. No. 5,880,333. […] Both luciferase and GUS assays are performed with 20 μl of cell lysate for each assay using the Promega Luciferase Kit (Promega cat #E1500) and GUS-Light Kit (Tropix) respectively. Relative light units are determined using a Turner Designs TD 20/20 luminometer.
In addition to tebufenozide, methoxytebufenozide (“MethoxyTeb”) is also capable of inducing gene expression in maize BMS cells. Both pCGS206 and pCGS208 are transfected as described above and methoxytebufenozide is added in place of tebufenozide at 25 μM and 10 μM.
Maize BMS cells are transfected and assayed as in Example 12.
as §1, with “Transformation of maize suspension cells, chemical treatment, and reporter activity assays are performed as described in Example 12. Maize” for “Maize”, “pCGS206 (pBS-bz1TATA/intronLUC), pCGS203 (G(M)MV), pCGS672 (G(M)MC),” for “pCGS206”, “pCGS678 (G(M)MD)” for “pCGS208”
as §2, with “Maize BMS cells are bombarded with reporter vector pCGS206 and chimeric receptors and treated with tebufenozide essentially as described in Example 12. Transfections” for “Transfections”, “units (RLU)” for “units”

[1] = Example 24, Experiment 1, BMS cells
[2] = Example 24, Experiment 2, BMS cells
[3] = BMS cells, reporter pCGS206, no ligand

B1: G(M)BV: EcR chimera: GAL4 DBD, Manduca sexta D domain, black cutworm E domain, VP16; SEQ ID NO:118-119 (protein)
chain: MQQLYVDFFSPAFIRYLFAWYCFFCRCSPCCLVLLLQGSATMKLLSSIEQACDICRLKKLKCSKEKPKCAKCLKNNWECRYSPKTKRSPLTRAHLTEVESRLERLEQLFLLIFPREDLDMILKMDSLQDIKALLTGLFVQDNVNKDAVTDRLASVETDMPLTLRQHRISATSSSEESSNKGQRQLTVSTRMRPECVVPESTCKNKRREKEAQREKDKLPVSTTTVDDHMPAIMQCDPPPPEAARIHEVVPRFLTEKLMEQNRLKNVTPLSANQKSLIARLVWYQEGYEQPSEEDLKRVTQTWQSDEDEEESDMPFRQITEMTILTVQLIVEFAKGLPGFAKISQSDQITLLKACSSEVMMLRVARRYDAATDSVLFANNQAYSRDNYRKAGMSYVIEDLLHFCRCMYSMMMDNVHYALLTAIVIFSDRPGLEQPLLVEEIQRYYLNTLRVYILNQNSASPRCPVVFAKILGILTELRTLGMQNSNMCISLKLKNRKLPPFLEEIWDVESRGKLAPPTDVSLGDELHLDGEDVAMAHADALDDFDLDMLGDGDSPGPGFTPHDSAPYGALDMADFEFEQMFTDALGIDEYGG
- Fold Induction with Teb Relative to Receptor with EtOH (Example 24, Experiment 1): 34 fold
- Fold Induction with Teb Relative to Reporter with EtOH (Example 24, Experiment 1): 81 fold
- Normalized Average (EtOH) [1]: 8.701
- Fold Induction with Teb Relative to Receptor with EtOH (Example 24, Experiment 2): 26 fold
- Fold Induction with Teb Relative to Reporter with EtOH (Example 24, Experiment 2): 95 fold
- Normalized Average (EtOH) [2]: 1.539

B2: G(E)MV: EcR chimera: GAL4 DBD, European corn borer D domain, Manduca sexta E domain, VP16; SEQ ID NO:126-127 (protein)
chain: MQQLYVDFFSPAFIRYLFAWYCFFCRCSPCCLVLLLQGSATMKLLSSIEQACDICRLKKLKCSKEKPKCAKCLKNNWECRYSPKTKRSPLTRAHLTEVESRLERLEQLFLLIFPREDLDMILKMDSLQDIKALLTGLFVQDNVNKDAVTDRLASVETDMPLTLRQHRISATSSSEESSNKGQRQLTVSTRMRPECVVPETQCAQKRKEKKAQREKDKLPVSTTTVDDHMPPIMQCDPPPPEAARILECLQHEVVPRFLSEKLMEQNRLKNIPPLTANQQFLIARLVWYQEGYEQPSEEDLKRVTQTWQLEEEEEEETDMPFRQITEMTILTVQLIVEFAKGLPGFSKISQSDQITLLKASSSEVMMLRVARRYDAATDSVLFANNQAYTRDNYRKAGMSYVIEDLLHFCRCMYSMSMDNVHYALLTAIVIFSDRPGLEQPLLVEEIQRYYLKTLRVYILNQHSASPRCAVLFGKILGVLTELRTLGTQNSNMCISLKLKNRKLPPFLEEIWDVAEVSTTKLAPPTDVSLGDELHLDGEDVAMAHADALDDFDLDMLGDGDSPGPGFTPHDSAPYGALDMADFEFEQMFTDALGIDEYGG
- Fold Induction with Teb Relative to Receptor with EtOH (Example 24, Experiment 1): 34 fold
- Fold Induction with Teb Relative to Reporter with EtOH (Example 24, Experiment 1): 135 fold
- Normalized Average (EtOH) [1]: 14.499
- Fold Induction with Teb Relative to Receptor with EtOH (Example 24, Experiment 2): 16 fold
- Fold Induction with Teb Relative to Reporter with EtOH (Example 24, Experiment 2): 95 fold
- Normalized Average (EtOH) [2]: 2.537

B3: G(M)MD: EcR chimera: GAL4 DBD, Manduca sexta D and E domains, maize Dof1 activation domain; SEQ ID NO:136-137 (protein)
chain: MQQLYVDFFSPAFIRYLFAWYCFFCRCSPCCLVLLLQGSATMKLLSSIEQACDICRLKKLKCSKEKPKCAKCLKNNWECRYSPKTKRSPLTRAHLTEVESRLERLEQLFLLIFPREDLDMILKMDSLQDIKALLTGLFVQDNVNKDAVTDRLASVETDMPLTLRQHRISATSSSEESSNKGQRQLTVSTRMRPECVVPESTCKNKRREKEAQREKDKLPVSTTTVDDHMPAIMQCDPPPPEAARIHEVVPRFLTEKLMEQNRLKNVTPLSANQKSLIARLVWYQEGYEQPSEEDLKRVTQTWQLEEEEEEETDMPFRQITEMTILTVQLIVEFAKGLPGFSKISQSDQITLLKASSSEVMMLRVARRYDAATDSVLFANNQAYTRDNYRKAGMSYVIEDLLHFCRCMYSMSMDNVHYALLTAIVIFSDRPGLEQPLLVEEIQRYYLKTLRVYILNQHSASPRCAVLFGKILGVLTELRTLGTQNSNMCISLKLKNRKLPPFLEEIWDVAEVSTTKLELATAADPGKTATTTTTTTSEITTETGALEDSDSLAHLLLQPGTEDAEAVALGLGLSDFPSAGKAVLDDEDSFVWPAASFDMGACWAGAGFADPDPACIFLNLP
- Experiment #1 Luciferase (+ 10 μM Teb): 6.37
- Experiment #2 Luciferase (+ 10 μM Teb): 9.14
- Experiment #1 Fold Induction: 3.0 fold
- Experiment #2 Fold Induction: 7.8 fold
- Experiment #1 Luciferase [3]: 2.14
- Experiment #2 Luciferase [3]: 1.18

B4: G(M)MC: EcR chimera: GAL4 DBD, Manduca sexta D and E domains, maize C1 activation domain; SEQ ID NO:134-135 (protein)
chain: MQQLYVDFFSPAFIRYLFAWYCFFCRCSPCCLVLLLQGSATMKLLSSIEQACDICRLKKLKCSKEKPKCAKCLKNNWECRYSPKTKRSPLTRAHLTEVESRLERLEQLFLLIFPREDLDMILKMDSLQDIKALLTGLFVQDNVNKDAVTDRLASVETDMPLTLRQHRISATSSSEESSNKGQRQLTVSTRMRPECVVPESTCKNKRREKEAQREKDKLPVSTTTVDDHMPAIMQCDPPPPEAARIHEVVPRFLTEKLMEQNRLKNVTPLSANQKSLIARLVWYQEGYEQPSEEDLKRVTQTWQLEEEEEEETDMPFRQITEMTILTVQLIVEFAKGLPGFSKISQSDQITLLKASSSEVMMLRVARRYDAATDSVLFANNQAYTRDNYRKAGMSYVIEDLLHFCRCMYSMSMDNVHYALLTAIVIFSDRPGLEQPLLVEEIQRYYLKTLRVYILNQHSASPRCAVLFGKILGVLTELRTLGTQNSNMCISLKLKNRKLPPFLEEIWDVAEVSTTKLPKAVRCTGGLFFFHRDTTPAHAGETATPMAGGGGGGGGEAGSSDDCSSAASVSLRVGSHDEPCFSGDGDGDWMDDVRALASFLESDEDWLRCQTAGQLA
- Experiment #1 Luciferase (+ 10 μM Teb): 53.20
- Experiment #2 Luciferase (+ 10 μM Teb): 28.05
- Experiment #1 Fold Induction: 26.0 fold
- Experiment #2 Fold Induction: 17.8 fold
- Experiment #1 Luciferase [3]: 2.05
- Experiment #2 Luciferase [3]: 1.58

B5: G(E)EV: EcR chimera: GAL4 DBD, European corn borer D and E domains, VP16; SEQ ID NO:124-125 (protein)
chain: MQQLYVDFFSPAFIRYLFAWYCFFCRCSPCCLVLLLQGSATMKLLSSIEQACDICRLKKLKCSKEKPKCAKCLKNNWECRYSPKTKRSPLTRAHLTEVESRLERLEQLFLLIFPREDLDMILKMDSLQDIKALLTGLFVQDNVNKDAVTDRLASVETDMPLTLRQHRISATSSSEESSNKGQRQLTVSTRMRPECVVPETQCAQKRKEKKAQREKDKLPVSTTTVDDHMPPIMQCDPPPPEAARILECLQHEVVPRFLSEKLMEQNRLKNIPPLTANQQFLIARLVWYQDGYEQPSEEDLKRVTQTWQSADEEDEDSDMPFRQITEMTILTVQLIVEFAKGLPGFSKISQPDQITLLKACSSEVMMLRVARRYDAVSDSVLFANNQAYTRDNYRKAGMAYVIEDLLHFCRCMYSMSMDNVHYALLTAIVIFSDRPGLEQPQLVEEIQRYYLNTLRVYIMNQHSASPRCAVIYAKILSVLTELRTLGMQNSNMCISLKLKNRKLPPFLEEIWDVKLAPPTDVSLGDELHLDGEDVAMAHADALDDFDLDMLGDGDSPGPGFTPHDSAPYGALDMADFEFEQMFTDALGIDEYGG
- Fold Induction with Teb Relative to Receptor with EtOH (Example 24, Experiment 1): 57 fold
- Fold Induction with Teb Relative to Reporter with EtOH (Example 24, Experiment 1): 119 fold
- Normalized Average (EtOH) [1]: 7.601
- Fold Induction with Teb Relative to Receptor with EtOH (Example 24, Experiment 2): 17 fold
- Fold Induction with Teb Relative to Reporter with EtOH (Example 24, Experiment 2): 99 fold
- Normalized Average (EtOH) [2]: 2.394

B6: G(M)FV: EcR chimera: GAL4 DBD, Manduca sexta D domain, fall armyworm E domain, VP16; SEQ ID NO:122-123 (protein)
chain: MQQLYVDFFSPAFIRYLFAWYCFFCRCSPCCLVLLLQGSATMKLLSSIEQACDICRLKKLKCSKEKPKCAKCLKNNWECRYSPKTKRSPLTRAHLTEVESRLERLEQLFLLIFPREDLDMILKMDSLQDIKALLTGLFVQDNVNKDAVTDRLASVETDMPLTLRQHRISATSSSEESSNKGQRQLTVSTRMRPECVVPESTCKNKRREKEAQREKDKLPVSTTTVDDHMPAIMQCDPPPPEAARIHEVVPRFLTEKLMEQNRLKNVTPLSANQKSLIARLVWYQEGYEQPSEEDLKRVTQTWQLEEEEEEETDMPFRQITEMTILTVQLIVEFAKGLPGFSKISQSDQITLLKASSSEVMMLRVARRYDAATDSVLFANNQAYTRDNYRKAGMSYVIGDLLHFCRCMYSMSMDNVHYALLTAIVIFSDRPGLEQPLLVEEIQRYYLKTLRVYILNQYSASPRCAVLFGKILGVLTELRTLGTQNSNMCISLKLKNRKLPPFLEEIWDVKLAPPTDVSLGDELHLDGEDVAMAHADALDDFDLDMLGDGDSPGPGFTPHDSAPYGALDMADFEFEQMFTDALGIDEYGG
- Fold Induction with Teb Relative to Receptor with EtOH (Example 24, Experiment 1): 51 fold
- Fold Induction with Teb Relative to Reporter with EtOH (Example 24, Experiment 1): 52 fold
- Normalized Average (EtOH) [1]: 3.766
- Fold Induction with Teb Relative to Receptor with EtOH (Example 24, Experiment 2): 24 fold
- Fold Induction with Teb Relative to Reporter with EtOH (Example 24, Experiment 2): 57 fold
- Normalized Average (EtOH) [2]: 0.484
